For assay [1], the target named is T1, Tau-derived peptide Tau401-418, not phosphorylated (T4.6) (human).
T1 construct: it is called the non-phosphorylated version of the same peptide as T4.5 (Tau401-418); also called corresponding non-phosphorylated Tau peptide
T1 peptide: GDTSPRHLSNVSSTGSID
The assay can be described thus: direct ELISA on plate-coated peptide (10 ug/mL), AP-conjugated anti-human IgG, O.D. at 405 nm. As to the method: Binding of hACl-36-2B6-Ab1 and hACl-36-3A8-Ab1 to T4 Peptides by ELISA 1.1. Method 1.1.1 Phospho-Tau Binding Assay To test the binding of the antibody to pTau, an ELISA assay was used. Nunc MaxiSorp 96-well plates (Nunc, Denmark) were coated with 10 µg/mL of the Tau-derived peptide Tau401-418, phosphorylated (T4.5) or not (T4.6) on serine 409. Coating was done overnight in phosphate-buffered saline (PBS; Sigma-Aldrich, Switzerland) at 4° C. Plates were washed thoroughly with 0.05% Tween20/PBS and then blocked with 1% bovine serum albumin (BSA; Sigma-Aldrich) in 0.05% Tween20/PBS for 1 hr at 37° C. The supernatant containing the antibody being tested was then added in 8 two-fold dilutions, starting at 0.5 µg/mL, and incubated for 2 hr at 37° C. Plates were then washed as described previously, and an alkaline phosphatase (AP) conjugated goat anti-human IgG (Jackson ImmunoResearch Laboratories, England) was added at 1/2,000 dilution in 0.05% Tween20/PBS for 2 hr at 37° C. After washing, plates were incubated with p-nitrophenyl phosphate disodium hexahydrate (pNPP; Sigma-Aldrich, Switzerland) phosphatase substrate solution, and read at 405 nm following 1 hr incubation using a microplate reader (Tecan, Switzerland). Results are expressed as optical density (O.D.). […]

The target in assay [2] is Tau-derived peptide Tau401-418, phosphorylated (T4.5) (human). Put plainly: SPR (Biacore T100), antibody captured via Protein G on CM7 chip, peptide T4.5 as analyte 50-800 nM, single-cycle kinetics, 1:1 Langmuir fit. Background: Surface plasmon resonance follows binding to a sensor surface in real time, without labels.

Here are results for two molecules from patent US9657091 (AC IMMUNE S A, dated 2017).

Tau-derived peptide Tau401-418, phosphorylated (T4.5) (human), sequence (peptide, as listed by the source): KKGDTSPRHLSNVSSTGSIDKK

B1: humanized antibody hACl-36-2B6-Ab1 (IgG4) (antibody, V domains shown)
VH: QVQLVQSGAEVKKPGSSVKVSCKASGYTFTDYYMNWVRQAPGQGLEWIGDINPNRGGTTYNQKFKGRVTITVDKSTSTAYMELSSLRSEDTAVYYCASYYAVGYWGQGTTVTVSS
VL: DIVMTQTPLSLPVTPGEPASISCRSSQSLVHSHGKTYLHWYLQKPGQSPQLLIYKVSNRFSGVPDRFSGSGSGTDFTLKISRVEAEDVGVYFCSQTAHFPYTFGGGTKVEIKR
notes: Humanized IgG4, kappa; also called 2B6A10C11
By Kd is commonly meant the concentration at which binding is half-saturated. Read a low Kd as higher affinity. What is called koff is the first-order rate constant of dissociation. A higher koff goes with a short-lived complex. One may read the kon as the rate constant with which the complex forms. A lower kon goes with slow association. Regarding B1, in assay [1], the binding result was “no binding (tested: 0.5 ug/mL)”. In assay [2], the Kd came to 67 nM, the off-rate constant (koff) came out at 0.0036 s⁻¹ and the association rate constant (kon) is 54000 M⁻¹ s⁻¹.

B2: humanized antibody hACl-36-3A8-Ab1 (IgG4) (antibody, V domains shown)
VH: QVQLVQSGAEVKKPGSSVKVSCKASGYTFTDYYMNWVRQAPGQGLEWIGDINPNRGGTTYNQKFKGRVTITVDKSTSTAYMELSSLRSEDTAVYYCASYYAVGYWGQGTTVTVSS
VL: DIVMTQTPLSLPVTPGEPASISCRSSQRLVHSHGKTYLHWYLQKPGQSPQLLIYKVSNRFSGVPDRFSGSGSGTDFTLKISRVEAEDVGVYFCSQTAHFPYTFGGGTKVEIKR
notes: Humanized IgG4, kappa; Tested as a supernatant containing the antibody; also called 3A8A12G7
As to B2, in assay [1], the binding result is on record as “no binding (tested: 0.5 ug/mL)”.
